What was measured:
[1] = molecular target: MERTK (UniProt Q12866); assay: phosphorylation enrichment, bacterial display (enrichment ratio); higher = better substrate or ligand; peptides without Tyr show the background
[2] = tested on: c-Abl (mouse); assay: as above
[3] = molecular target: Hck (UniProt P08631); assay: as above
[4] = molecular target: Fes (UniProt P07332); assay: as above
[5] = molecular target: EPHB2 (UniProt P29323); assay: as above
[6] = molecular target: EPHB1 (UniProt P54762); assay: as above
[7] = tested on: AncSZ; assay: as above
[8] = molecular target: FGFR3 (UniProt P22607); assay: as above
[9] = molecular target: FGFR1 (UniProt P11362); assay: as above
[10] = tested on: Fer (mouse); assay: as above
[11] = tested on: c-Src; assay: as above
[12] = molecular target: Jak2 (UniProt O60674); assay: as above
[13] = molecular target: Fyn (UniProt P06241); assay: as above
[14] = molecular target: SHP2-C SH2; assay: SH2 binding enrichment of the phosphorylated peptide, bacterial display (enrichment ratio); higher = better substrate or ligand; peptides without Tyr show the background
[15] = molecular target: Grb2 SH2 (UniProt P62993); assay: as above
[16] = molecular target: c-Src SH2; assay: as above
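Wherever SH2 binding enrichment of the phosphorylated peptide, bacterial display is given: peptide library displayed on the E. coli surface as eCPX fusions, selected cells deep-sequenced, score is each peptide's frequency after selection divided by its frequency in the input.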
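Wherever phosphorylation enrichment, bacterial display is given: 11-residue human phosphosite peptides and single-mutation variants displayed on the E. coli surface, counted by deep sequencing, each peptide's frequency after selection divided by its frequency in the unselected input library; frequency after pTyr selection over input frequency; kinase dosed for 20-30% of maximal phosphorylation in three min.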

Sequence of Fes (P07332 whole entry, looked up): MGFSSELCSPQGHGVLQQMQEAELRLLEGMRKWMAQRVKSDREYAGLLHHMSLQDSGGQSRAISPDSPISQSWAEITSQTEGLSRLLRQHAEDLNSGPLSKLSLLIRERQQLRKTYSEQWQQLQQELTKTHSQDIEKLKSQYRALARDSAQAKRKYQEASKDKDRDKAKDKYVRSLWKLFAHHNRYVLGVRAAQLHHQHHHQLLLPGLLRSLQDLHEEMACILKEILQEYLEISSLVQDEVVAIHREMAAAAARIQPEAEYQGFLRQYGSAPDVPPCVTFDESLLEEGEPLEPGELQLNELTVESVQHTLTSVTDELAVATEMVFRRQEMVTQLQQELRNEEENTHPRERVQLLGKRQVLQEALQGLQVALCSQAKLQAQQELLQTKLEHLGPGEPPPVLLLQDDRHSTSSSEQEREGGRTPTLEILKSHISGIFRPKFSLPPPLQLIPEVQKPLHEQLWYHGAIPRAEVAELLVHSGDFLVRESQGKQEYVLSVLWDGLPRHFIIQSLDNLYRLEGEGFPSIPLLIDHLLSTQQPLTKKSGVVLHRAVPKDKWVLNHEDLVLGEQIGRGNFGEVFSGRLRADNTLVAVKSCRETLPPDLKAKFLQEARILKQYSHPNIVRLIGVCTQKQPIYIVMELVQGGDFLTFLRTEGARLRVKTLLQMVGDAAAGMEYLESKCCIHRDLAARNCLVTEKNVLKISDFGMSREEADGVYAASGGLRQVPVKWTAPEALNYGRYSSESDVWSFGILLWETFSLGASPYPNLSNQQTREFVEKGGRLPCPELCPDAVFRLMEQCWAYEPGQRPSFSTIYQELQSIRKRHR
Sequence of EPHB1 (P54762 whole entry, looked up): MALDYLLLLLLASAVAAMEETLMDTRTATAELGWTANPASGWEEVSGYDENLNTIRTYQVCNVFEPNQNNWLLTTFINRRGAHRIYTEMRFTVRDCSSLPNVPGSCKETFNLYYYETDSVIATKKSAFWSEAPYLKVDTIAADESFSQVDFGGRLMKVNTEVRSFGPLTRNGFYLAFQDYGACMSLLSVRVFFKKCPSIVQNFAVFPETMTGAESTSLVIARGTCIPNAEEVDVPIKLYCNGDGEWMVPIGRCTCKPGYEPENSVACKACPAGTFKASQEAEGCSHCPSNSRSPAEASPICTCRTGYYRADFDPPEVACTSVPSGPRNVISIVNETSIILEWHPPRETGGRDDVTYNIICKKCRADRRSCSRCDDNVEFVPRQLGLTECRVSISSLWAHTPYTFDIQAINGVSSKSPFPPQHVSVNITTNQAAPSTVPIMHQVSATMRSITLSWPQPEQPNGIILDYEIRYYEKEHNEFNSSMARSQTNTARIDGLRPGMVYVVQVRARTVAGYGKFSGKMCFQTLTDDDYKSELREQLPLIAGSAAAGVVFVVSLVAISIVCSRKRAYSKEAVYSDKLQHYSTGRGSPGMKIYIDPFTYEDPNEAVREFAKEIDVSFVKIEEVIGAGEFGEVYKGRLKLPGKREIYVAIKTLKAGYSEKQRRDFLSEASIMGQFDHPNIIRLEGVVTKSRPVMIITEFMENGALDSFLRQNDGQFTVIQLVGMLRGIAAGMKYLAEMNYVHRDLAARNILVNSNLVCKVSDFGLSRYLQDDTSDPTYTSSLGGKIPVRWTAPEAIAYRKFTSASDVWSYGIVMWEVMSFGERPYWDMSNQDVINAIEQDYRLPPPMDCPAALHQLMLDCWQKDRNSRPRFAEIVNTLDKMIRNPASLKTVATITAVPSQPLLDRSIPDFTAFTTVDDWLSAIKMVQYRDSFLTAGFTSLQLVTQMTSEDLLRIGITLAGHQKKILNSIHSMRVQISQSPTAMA
Sequence of Grb2 SH2 (P62993 whole entry, looked up): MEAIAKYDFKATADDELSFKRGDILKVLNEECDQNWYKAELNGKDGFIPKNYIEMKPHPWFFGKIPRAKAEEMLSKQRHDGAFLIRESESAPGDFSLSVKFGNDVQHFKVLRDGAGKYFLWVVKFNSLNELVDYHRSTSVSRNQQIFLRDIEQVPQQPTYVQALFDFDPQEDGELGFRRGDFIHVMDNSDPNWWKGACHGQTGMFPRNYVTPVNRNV
Sequence of Hck (P08631 whole entry, looked up): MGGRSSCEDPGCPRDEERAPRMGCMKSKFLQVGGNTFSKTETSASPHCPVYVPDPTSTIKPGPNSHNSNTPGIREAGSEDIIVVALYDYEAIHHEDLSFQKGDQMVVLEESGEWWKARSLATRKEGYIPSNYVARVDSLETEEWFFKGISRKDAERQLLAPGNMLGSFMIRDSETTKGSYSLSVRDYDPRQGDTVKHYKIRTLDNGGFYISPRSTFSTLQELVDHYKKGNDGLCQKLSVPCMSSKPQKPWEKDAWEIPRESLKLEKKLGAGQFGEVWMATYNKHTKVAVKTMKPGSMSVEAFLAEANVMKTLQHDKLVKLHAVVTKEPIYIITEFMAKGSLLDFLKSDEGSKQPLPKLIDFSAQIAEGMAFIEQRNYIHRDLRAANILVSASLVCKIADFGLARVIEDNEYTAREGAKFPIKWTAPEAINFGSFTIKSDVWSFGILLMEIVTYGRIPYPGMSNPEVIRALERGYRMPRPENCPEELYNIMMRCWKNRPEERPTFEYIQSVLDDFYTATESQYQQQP
Sequence of EPHB2 (P29323 whole entry, looked up): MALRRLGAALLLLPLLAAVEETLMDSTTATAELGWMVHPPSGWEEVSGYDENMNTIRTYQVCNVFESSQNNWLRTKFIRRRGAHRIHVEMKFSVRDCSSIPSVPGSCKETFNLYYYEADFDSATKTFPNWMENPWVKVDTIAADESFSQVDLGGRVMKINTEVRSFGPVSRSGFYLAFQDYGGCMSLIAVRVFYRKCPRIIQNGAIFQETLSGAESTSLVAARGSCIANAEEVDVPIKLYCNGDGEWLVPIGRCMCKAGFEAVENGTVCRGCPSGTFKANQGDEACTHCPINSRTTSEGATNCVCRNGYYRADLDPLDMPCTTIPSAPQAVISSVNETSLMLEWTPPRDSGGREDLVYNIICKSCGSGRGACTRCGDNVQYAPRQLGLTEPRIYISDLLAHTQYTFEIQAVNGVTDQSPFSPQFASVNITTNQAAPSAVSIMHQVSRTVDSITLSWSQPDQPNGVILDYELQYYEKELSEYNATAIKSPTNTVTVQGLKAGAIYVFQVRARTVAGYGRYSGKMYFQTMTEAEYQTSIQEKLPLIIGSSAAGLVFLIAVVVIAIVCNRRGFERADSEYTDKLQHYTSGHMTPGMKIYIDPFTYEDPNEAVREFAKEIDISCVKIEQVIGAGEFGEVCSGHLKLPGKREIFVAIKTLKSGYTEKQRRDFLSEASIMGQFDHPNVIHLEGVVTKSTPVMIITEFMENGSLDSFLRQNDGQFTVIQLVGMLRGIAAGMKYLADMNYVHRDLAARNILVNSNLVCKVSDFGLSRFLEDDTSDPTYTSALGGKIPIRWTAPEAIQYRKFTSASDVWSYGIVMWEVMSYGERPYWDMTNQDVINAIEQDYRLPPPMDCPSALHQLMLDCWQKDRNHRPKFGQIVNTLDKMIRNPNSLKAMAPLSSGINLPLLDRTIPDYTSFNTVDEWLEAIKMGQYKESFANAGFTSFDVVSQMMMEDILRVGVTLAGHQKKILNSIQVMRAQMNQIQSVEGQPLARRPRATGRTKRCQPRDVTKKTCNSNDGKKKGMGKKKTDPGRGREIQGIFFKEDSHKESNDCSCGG
Sequence of Jak2 (O60674 whole entry, looked up): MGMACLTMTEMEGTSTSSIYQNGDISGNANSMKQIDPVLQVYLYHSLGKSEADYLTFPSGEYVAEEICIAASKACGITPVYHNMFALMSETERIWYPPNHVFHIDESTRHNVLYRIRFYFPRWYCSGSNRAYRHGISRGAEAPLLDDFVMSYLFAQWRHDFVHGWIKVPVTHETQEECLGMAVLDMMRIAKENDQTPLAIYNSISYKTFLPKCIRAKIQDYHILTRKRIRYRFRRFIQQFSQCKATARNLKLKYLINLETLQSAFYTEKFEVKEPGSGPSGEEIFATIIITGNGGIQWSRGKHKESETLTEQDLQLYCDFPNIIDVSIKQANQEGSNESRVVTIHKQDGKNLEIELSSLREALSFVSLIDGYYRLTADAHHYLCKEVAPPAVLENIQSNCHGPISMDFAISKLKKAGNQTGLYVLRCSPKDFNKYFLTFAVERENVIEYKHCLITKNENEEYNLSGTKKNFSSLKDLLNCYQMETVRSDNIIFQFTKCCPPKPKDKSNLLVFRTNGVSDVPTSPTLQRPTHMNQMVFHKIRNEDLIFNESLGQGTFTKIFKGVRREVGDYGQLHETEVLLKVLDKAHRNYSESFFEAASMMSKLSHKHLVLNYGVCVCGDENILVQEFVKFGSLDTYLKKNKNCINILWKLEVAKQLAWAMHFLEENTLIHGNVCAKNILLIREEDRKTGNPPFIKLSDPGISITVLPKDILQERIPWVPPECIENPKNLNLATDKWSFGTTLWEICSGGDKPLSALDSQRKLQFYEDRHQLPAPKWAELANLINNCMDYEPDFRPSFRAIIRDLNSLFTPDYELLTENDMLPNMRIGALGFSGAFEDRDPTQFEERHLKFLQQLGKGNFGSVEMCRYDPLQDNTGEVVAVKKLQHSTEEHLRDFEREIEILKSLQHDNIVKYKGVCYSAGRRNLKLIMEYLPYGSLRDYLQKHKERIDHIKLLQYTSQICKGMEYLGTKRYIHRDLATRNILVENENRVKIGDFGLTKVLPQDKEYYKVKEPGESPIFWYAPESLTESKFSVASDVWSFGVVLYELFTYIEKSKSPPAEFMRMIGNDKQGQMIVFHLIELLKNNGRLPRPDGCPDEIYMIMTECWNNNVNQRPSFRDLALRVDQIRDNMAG

Sequence | phosphorylation enrichment [1] | phosphorylation enrichment [2] | phosphorylation enrichment [3] | phosphorylation enrichment [4] | phosphorylation enrichment [5] | phosphorylation enrichment [6] | phosphorylation enrichment [7] | phosphorylation enrichment [8] | phosphorylation enrichment [9] | phosphorylation enrichment [10] | phosphorylation enrichment [11] | phosphorylation enrichment [12] | phosphorylation enrichment [13] | SH2 binding enrichment [14] | SH2 binding enrichment [15] | SH2 binding enrichment [16]
EREFKYGAHNF [OAT_Y50_YF] | 0.359 | 0.401 | 0.386 | 0.608 | 0.375 | 0.392 | 0.516 | 0.482 | 0.368 | 0.36 | 0.388 | 0.483 | 0.442 | 0.785 | 0.893 | 0.399
TLQSMYGCDVG [HLA-B_Y123] | 0.406 | 0.639 | 0.525 | 0.979 | 0.71 | 0.598 | 0.935 | 0.667 | 0.497 | 0.612 | 0.661 | 0.843 | 0.552 | 0.812 | 1.08 | 0.559
FKEIVYAVSSD [DCX_Y70_G67E] | 1.93 | 13.7 | 2.25 | 1.4 | 0.644 | 0.455 | 1.32 | 0.809 | 0.723 | 0.587 | 3.74 | 0.921 | 3.23 | 0.656 | 0.913 | 0.742
SIKDKYVTAFY [KCNH2_Y611_L615F] | 0.358 | 0.391 | 0.414 | 0.67 | 0.439 | 0.488 | 0.578 | 0.475 | 0.483 | 0.401 | 0.383 | 0.523 | 0.428 | 0.525 | 0.607 | 0.461
IEDNKYTAREG [HCK_Y411_E410K] | 0.356 | 0.756 | 0.469 | 1.03 | 0.543 | 0.588 | 0.926 | 0.545 | 0.558 | 0.392 | 0.506 | 0.788 | 0.507 | 0.828 | 0.924 | 0.573
YKPGFYNLKEK [LAMA1_Y490_C485Y] | 0.366 | 0.971 | 0.397 | 0.628 | 0.431 | 0.343 | 0.659 | 0.402 | 0.352 | 0.432 | 0.491 | 0.891 | 0.421 | 1.5 | 1.27 | 0.814
PRPAGYPSMVS [CACNA1C_Y1832_T1835M] | 0.365 | 0.435 | 0.456 | 0.668 | 0.561 | 0.393 | 0.678 | 0.364 | 0.386 | 0.412 | 0.416 | 0.475 | 0.48 | 0.507 | 0.755 | 0.312
VQEDIYDEFVE [ALDH2_Y332] | 0.542 | 0.859 | 1.15 | 1.3 | 0.715 | 0.728 | 1.2 | 0.731 | 0.459 | 0.658 | 1.87 | 1.34 | 1.89 | 0.408 | 0.752 | 0.437
SRLSAYPALEG [CD5_Y465_H461R] | 0.496 | 0.471 | 0.436 | 0.803 | 0.495 | 0.348 | 0.723 | 0.469 | 0.486 | 0.391 | 0.533 | 0.674 | 0.425 | 0.69 | 0.899 | 0.437
KIVATYRLCSE [DNAH3_Y1586] | 0.565 | 0.714 | 0.725 | 1.28 | 0.626 | 0.631 | 1.06 | 0.664 | 0.571 | 0.487 | 0.535 | 1.02 | 0.463 | 0.778 | 0.685 | 0.512
KANEYYPVVII [ADAMTS18_Y765_L769I] | 0.81 | 2.4 | 0.738 | 0.978 | 2.08 | 1.65 | 2.63 | 10.8 | 12.8 | 1.45 | 0.704 | 3.18 | 0.613 | 0.458 | 0.721 | 0.383
NYYDTCIKTCL [IQGAP2_Y1445_Y1445C] | 5.87 | 0.894 | 1.51 | 1.07 | 2.32 | 7.47 | 1.3 | 5.45 | 7.57 | 1.05 | 1.16 | 1.17 | 1.52 | 0.706 | 0.856 | 3.21
SHMVDYQPFRK [TEX37_Y25_YF] | 0.473 | 0.967 | 0.732 | 0.705 | 0.445 | 0.549 | 0.564 | 0.464 | 0.387 | 0.294 | 0.672 | 1.03 | 0.5 | 1.06 | 0.948 | 0.383
EYITRYIDSLK [PSMA7_Y110_A112D] | 0.395 | 0.498 | 0.558 | 0.832 | 0.552 | 0.396 | 0.829 | 0.572 | 0.528 | 0.461 | 0.479 | 0.677 | 0.504 | 1.1 | 0.814 | 0.588
EVKAQYEDIAQ [KRT1_Y358] | 0.435 | 0.774 | 0.69 | 1.26 | 0.539 | 0.546 | 1.22 | 0.748 | 0.593 | 0.761 | 0.516 | 1.06 | 0.556 | 0.64 | 1.15 | 11.6
VTSLKYSTPPY [BRIP1_Y916_S919P] | 0.387 | 0.483 | 0.396 | 0.681 | 0.344 | 0.355 | 0.625 | 0.515 | 0.358 | 0.352 | 0.389 | 0.565 | 0.366 | 1.31 | 0.955 | 0.434
